Laboratory results taken from PMC7069074.

Biological target: T1, ERα (purified) (UniProt P03372)
T1 sequence: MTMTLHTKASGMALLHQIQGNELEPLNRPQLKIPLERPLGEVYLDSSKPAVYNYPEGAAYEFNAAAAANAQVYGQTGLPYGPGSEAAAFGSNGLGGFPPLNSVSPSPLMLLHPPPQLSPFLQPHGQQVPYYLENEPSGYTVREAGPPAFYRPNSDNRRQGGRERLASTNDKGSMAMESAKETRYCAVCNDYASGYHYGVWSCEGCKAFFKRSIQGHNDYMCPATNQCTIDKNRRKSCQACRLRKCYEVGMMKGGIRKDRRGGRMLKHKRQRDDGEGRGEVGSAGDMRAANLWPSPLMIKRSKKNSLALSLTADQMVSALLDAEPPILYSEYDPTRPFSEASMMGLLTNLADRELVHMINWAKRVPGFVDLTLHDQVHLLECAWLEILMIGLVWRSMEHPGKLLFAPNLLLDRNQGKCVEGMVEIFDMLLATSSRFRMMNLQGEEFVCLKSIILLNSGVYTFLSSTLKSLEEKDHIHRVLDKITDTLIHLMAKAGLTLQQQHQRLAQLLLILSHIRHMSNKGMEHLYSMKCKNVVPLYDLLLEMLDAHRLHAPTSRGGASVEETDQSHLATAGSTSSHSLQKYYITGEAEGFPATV
Experiment: EMSA (1% agarose, ethidium bromide)
Conditions: EMSA: 0.1 M KCl, 1 mM DTT, 1 mM MgCl2, 10 mM HEPES pH 7.6, 37 °C, 30 min; pull-down: lysate in 5 mM PIPES, 85 mM KCl, 0.5% NP-40, 2 mM PMSF, 4 °C overnight …

AACGGAGTGTAGTCGGCTGACCCCTAGCATAGAGCAGTGCTGTTGGCTACTAACCACACCTCTCTACCTCTTTCTTACTCTAATATTACCCACCACAACAGCCAGAAAGTTCTTTTGAGAACATCTATCTGATCATGACACTGTCTTACTTAAAATCTTCCAGTGACTACTATTACCCTTAGGGTAGTCCAGATTCCATAATGTGGTTTACTGGACTCTATGACTTCTAAGAGAAGTCTTAGAGT (double strand) [YB-1 promoter]
binding: binds
